The record followed here is US8771644B2, “Imaging probes” (Sanofi, priority 2007, dated 2014).

Common to all, as to type: biochemical
The test system of data set [1] is CN(C)c1ccc(/N=N/c2ccc(C(=O)NCCCC[C@H](NC(=O)[C@H](CCC(=O)NCCNc3cccc4c(S(=O)(=O)O)cccc34)NC(=O)[C@H](CC3CCCCC3)NC(=O)N3CCOCC3)C(=O)O)cc2)cc1. Briefly: in vitro activity assay (fluorescence, substrate cleavage) with Cath B. Particulars: other: Cath B; measurement performed at pH 7.5; pH 7.5; 37.0 °C. Here is the method: (§1) […] The substrates were solved in DMSO and added to enzyme solution with a final concentration of 50 μM.
(§2) Fluorescence was measured with an Tecan SAFIRE II spectrometer (excitation wavelength: 336 nm; emission wavelength: 490 nm; excitation band: 10.0 nm; emission band: 10.0 nm; amplification (manual): 90).

In data set [2] the test system is CN(C)c1ccc2c(c1)Oc1cc(N(C)C)ccc1C21OC(=O)c2cc(C(=O)NCC[C@H](NC(=O)[C@H](CC3CCCCC3)NC(=O)N3CCOCC3)C(=O)NCCNC(=O)c3ccc(-c4c5ccc(=O)cc-5oc5cc(O)ccc45)c(C(=O)O)c3)ccc21. The data set is described as above. As to conditions: other: Cath B; measurement performed at pH 5.5; pH 5.5; 37.0 °C. Here is the method: as §1, §2
The test system of data set [3] is CN(C)c1ccc(/N=N/c2ccc(C(=O)NCCCC[C@H](NC(=O)[C@H](CCC(=O)NCCNc3cccc4c(S(=O)(=O)O)cccc34)NC(=O)[C@H](CC3CCCCC3)NC(=O)N3CCOCC3)C(=O)O)cc2)cc1. Description: in vitro activity assay (fluorescence, substrate cleavage) with Cath L. Particulars: other: Cath L; measurement performed at pH 7.5; pH 7.5; 37.0 °C. Here is the method:
as §1, §2

Data set [4] has as its system CN(C)c1ccc2c(c1)Oc1cc(N(C)C)ccc1C21OC(=O)c2cc(C(=O)NCC[C@H](NC(=O)[C@H](CC3CCCCC3)NC(=O)N3CCOCC3)C(=O)NCCNC(=O)c3ccc(-c4c5ccc(=O)cc-5oc5cc(O)ccc45)c(C(=O)O)c3)ccc21. The data set is described as above. As to conditions: other: Cath L; measurement performed at pH 5.5; pH 5.5; 37.0 °C. On the procedure:
as §1, §2

Cath L (Homo sapiens), sequence (chain, as listed by the source): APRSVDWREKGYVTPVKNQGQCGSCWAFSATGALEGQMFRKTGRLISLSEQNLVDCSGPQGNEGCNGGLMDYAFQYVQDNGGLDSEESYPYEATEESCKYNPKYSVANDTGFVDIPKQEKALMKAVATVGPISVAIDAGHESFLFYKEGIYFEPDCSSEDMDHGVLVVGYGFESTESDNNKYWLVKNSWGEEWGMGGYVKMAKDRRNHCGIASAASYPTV

Usually Km stands for the concentration of substrate that gives half-maximal velocity. Usually Vmax stands for the top rate of the reaction or transport when substrate is in excess. Usually kcat/Km stands for the turnover number divided by the Michaelis constant. The kcat is the number of substrate molecules converted per active site and unit of time at saturation. For the substance Cath B (Homo sapiens), in data set [1], the Michaelis constant (Km) came out at 0.12 mM, the Vmax amounted to 0.006 µmol/min and the kcat/Km amounted to 250 M⁻¹ s⁻¹. Besides, in data set [2], the Km stood at 0.88 mM, the maximal velocity (Vmax) was found to be 0.156 µmol/min and the kcat was 0.25 s⁻¹.

As for Cath L (Homo sapiens), in data set [3], the Km was 8.3 mM, the Vmax was 0.27 µmol/min, the kcat was 1.26 s⁻¹ and the catalytic efficiency (kcat/Km) turned out to be 152 M⁻¹ s⁻¹. Also, in data set [4], the Km amounted to 7.1 mM, the Vmax was determined as 0.582 µmol/min and the catalytic constant (kcat) is 3.01 s⁻¹.
